# From patent publication EP2487185A1 (Clinuvel Pharmaceuticals Limited, dated 2012)
# Non-standard residues stand in square brackets, D forms with d. Nle = CCCC[C@H](N)C(=O)O
# Molecular target: Melanocortin-1 Receptor (human, UniProt Q01726 1-317)
# Test: cell-based or functional assay
# Melanocortin-1 Receptor, sequence (Q01726 whole entry): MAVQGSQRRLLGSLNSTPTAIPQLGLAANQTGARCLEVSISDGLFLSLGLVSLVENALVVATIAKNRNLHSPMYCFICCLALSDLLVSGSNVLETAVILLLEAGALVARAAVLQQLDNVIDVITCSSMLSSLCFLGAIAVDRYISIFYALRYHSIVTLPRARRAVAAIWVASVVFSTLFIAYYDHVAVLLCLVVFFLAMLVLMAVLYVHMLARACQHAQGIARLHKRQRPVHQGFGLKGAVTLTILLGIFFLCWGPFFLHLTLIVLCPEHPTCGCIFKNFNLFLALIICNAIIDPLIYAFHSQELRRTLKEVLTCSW
binder,measurement,value
"Ac-[Nle]EH[dF]RW-NH2 (SMILES CCCC[C@H](NC(C)=O)C(=O)N[C@@H](CCC(=O)O)C(=O)N[C@@H](Cc1c[nH]cn1)C(=O)N[C@H](Cc1ccccc1)C(=O)N[C@@H](CCCNC(=N)N)C(=O)N[C@@H](Cc1c[nH]c2ccccc12)C(N)=O) [CUV9900, Ac-Nle-Glu-His-D-Phe-Arg-Trp-NH2 (SEQ ID NO: 1) variation]","tyrosinase activity, concentration giving maximal stimulation, melanocyte strain 102b, 6 days",0.1 nM
